Data on one molecule can be found in patent publication US20140065150A1 (AGGAMIN PHARMACEUTICALS, published 2014).

This experiment addresses T1, human sFlt-1 protein (Ig-like domains 1-3), amino acids Ser27 to Ile328, with carboxy-terminal poly-histidine … (human, UniProt P17948 27-328).
T1 construct: range 27-328; also called sFlt-1 (domains 1-3); Recombinant sFlt1 (d1-d3)
Kind of experiment: SPR (FIG. 2 legend: ForteBio Octet), antibody immobilized, sFlt-1 (domains 1-3) in the liquid phase; apparent Kd. On the procedure:
The apparent Kd of binding between purified monoclonal antibodies and sFlt1 was measured by surface plasmon resonance (SPR). (FIG. 2B). Antibodies were immobilized on the solid phase and sFlt-1 (domains 1-3) was in the liquid phase. There was no direct correlation between antibody affinity (as measured in a kinetic binding experiment) (FIG. 2B) and effectiveness (FIG. 2A) in the device. There was also no direct correlation with on-rates or off-rates and device effectiveness.
(In general: In BLI a coated tip is dipped into the sample, and binding shifts an interference pattern.)

T1 sequence (P17948 27-328): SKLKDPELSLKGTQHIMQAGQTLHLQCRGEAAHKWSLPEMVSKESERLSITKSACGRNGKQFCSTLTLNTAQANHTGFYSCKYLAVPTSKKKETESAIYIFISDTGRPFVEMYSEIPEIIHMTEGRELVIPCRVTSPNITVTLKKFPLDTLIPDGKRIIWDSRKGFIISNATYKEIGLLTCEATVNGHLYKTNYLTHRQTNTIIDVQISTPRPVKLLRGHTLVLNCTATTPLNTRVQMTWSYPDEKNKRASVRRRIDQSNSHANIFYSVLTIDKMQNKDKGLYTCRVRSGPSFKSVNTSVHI

B1: antibody 101 (antibody, V domains shown)
VH: QVQLKQSGPGLVQPSQSLSLTCTVSGFSLTNYGVHWIRQSPGKGLEWLGVIWSGGSIDYNAVFTSRLTITKDHSKSQVFFKVNSLESNDTAIYYCARNVGYRYDDGYVMDYWGQGTSVIVSS
VL: SIVMTQTPKFLLVSAGDRVTITCKASQSVSIDVAWYQQKPGQSPKLLIYHASNRYTGVPDRFIGSRYGTDFTFTISTVQAEDLAVYFCQQNYDSPFTFGSGTKLELKR
notes: Mouse monoclonal antibody raised against human sFlt-1 (Ig-like domains 1-3)
For B1, the Kd came to 1.44 nM.
